We go through one substance from patent US20140072613A1, “Compositions and Methods for Treating Cutaneous Scarring” (priority 2012, published 2014).

Targets include WNK2(h) (human) (UniProt Q9Y3S1); Hck(h) (human) (UniProt P08631); CDK3/cyclinE(h) (human) (UniProt Q00526); MARK1(h) (human) (UniProt Q9P0L2); PKGδ(h) (human); PKCα(h) (human) (UniProt P17252); 6SK3β(h) (human) (UniProt P49841); FGFR2(h) (human) (UniProt P21802); Flt4(h) (human) (UniProt P35916).
What all share (assay): cell-based or functional assay
The target in another test is T1, eEF-2K(h) (human) (UniProt O00418).
T1 sequence (looked up): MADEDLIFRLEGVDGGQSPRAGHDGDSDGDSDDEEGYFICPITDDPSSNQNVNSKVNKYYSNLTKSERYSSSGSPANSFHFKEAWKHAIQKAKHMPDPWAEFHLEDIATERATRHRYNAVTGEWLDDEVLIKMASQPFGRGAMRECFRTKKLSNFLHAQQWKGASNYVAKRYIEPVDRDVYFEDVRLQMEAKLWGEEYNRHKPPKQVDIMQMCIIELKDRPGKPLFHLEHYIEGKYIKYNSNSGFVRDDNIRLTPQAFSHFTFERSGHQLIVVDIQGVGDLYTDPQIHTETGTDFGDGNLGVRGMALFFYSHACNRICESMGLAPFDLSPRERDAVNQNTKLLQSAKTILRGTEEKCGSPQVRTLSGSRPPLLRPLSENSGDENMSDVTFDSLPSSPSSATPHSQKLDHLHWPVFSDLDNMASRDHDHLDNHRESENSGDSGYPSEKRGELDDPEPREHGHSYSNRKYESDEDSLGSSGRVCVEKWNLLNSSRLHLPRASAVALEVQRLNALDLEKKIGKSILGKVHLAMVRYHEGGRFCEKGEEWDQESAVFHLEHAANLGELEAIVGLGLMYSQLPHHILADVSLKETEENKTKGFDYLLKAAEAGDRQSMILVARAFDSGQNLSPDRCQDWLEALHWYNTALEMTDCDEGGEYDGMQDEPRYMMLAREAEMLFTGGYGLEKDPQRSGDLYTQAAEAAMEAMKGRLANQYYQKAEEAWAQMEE

In a further test the target is T2, SGK2(h) (human) (UniProt Q9HBY8).
T2 sequence (looked up): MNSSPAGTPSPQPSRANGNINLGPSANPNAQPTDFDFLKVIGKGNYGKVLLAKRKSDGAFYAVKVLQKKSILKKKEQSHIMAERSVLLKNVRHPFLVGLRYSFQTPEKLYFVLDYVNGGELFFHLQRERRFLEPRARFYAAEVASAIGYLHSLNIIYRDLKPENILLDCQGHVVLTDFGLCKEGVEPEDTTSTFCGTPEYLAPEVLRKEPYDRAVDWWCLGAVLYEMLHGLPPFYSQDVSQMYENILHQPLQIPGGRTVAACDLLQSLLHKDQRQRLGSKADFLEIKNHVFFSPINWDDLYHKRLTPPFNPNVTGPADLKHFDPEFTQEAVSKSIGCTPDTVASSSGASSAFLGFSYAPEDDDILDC

The next test has as its target T3, PhKγ2(h) (human) (UniProt P15735).
T3 sequence (looked up): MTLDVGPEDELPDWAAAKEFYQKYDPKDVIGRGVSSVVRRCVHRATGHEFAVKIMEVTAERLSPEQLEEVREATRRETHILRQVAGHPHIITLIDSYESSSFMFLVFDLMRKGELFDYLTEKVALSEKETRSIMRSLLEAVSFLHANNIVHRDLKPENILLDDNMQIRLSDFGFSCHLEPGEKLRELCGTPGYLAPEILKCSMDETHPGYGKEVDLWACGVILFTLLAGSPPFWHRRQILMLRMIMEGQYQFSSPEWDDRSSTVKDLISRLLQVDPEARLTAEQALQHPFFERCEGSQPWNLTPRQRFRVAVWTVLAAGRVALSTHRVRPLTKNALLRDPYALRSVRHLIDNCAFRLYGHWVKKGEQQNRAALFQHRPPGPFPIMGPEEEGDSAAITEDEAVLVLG

Another test deals with T4, CHK1(h) (human) (UniProt O14757).
T4 sequence (looked up): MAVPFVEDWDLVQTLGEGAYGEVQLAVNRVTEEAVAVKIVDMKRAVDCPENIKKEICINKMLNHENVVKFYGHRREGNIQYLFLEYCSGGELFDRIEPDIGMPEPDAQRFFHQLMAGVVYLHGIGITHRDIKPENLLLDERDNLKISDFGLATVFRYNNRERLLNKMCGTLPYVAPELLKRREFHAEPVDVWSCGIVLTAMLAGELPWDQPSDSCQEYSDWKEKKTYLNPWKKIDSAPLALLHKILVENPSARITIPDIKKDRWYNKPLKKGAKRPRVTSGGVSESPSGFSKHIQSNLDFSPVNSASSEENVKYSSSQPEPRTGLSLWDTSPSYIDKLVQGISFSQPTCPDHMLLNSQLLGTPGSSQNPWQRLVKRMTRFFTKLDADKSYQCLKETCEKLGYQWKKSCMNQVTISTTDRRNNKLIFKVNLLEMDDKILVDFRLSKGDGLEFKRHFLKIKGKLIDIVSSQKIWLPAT

For another test, the target named is T5, GRK7(h) (human) (UniProt Q8WTQ7).
T5 sequence (looked up): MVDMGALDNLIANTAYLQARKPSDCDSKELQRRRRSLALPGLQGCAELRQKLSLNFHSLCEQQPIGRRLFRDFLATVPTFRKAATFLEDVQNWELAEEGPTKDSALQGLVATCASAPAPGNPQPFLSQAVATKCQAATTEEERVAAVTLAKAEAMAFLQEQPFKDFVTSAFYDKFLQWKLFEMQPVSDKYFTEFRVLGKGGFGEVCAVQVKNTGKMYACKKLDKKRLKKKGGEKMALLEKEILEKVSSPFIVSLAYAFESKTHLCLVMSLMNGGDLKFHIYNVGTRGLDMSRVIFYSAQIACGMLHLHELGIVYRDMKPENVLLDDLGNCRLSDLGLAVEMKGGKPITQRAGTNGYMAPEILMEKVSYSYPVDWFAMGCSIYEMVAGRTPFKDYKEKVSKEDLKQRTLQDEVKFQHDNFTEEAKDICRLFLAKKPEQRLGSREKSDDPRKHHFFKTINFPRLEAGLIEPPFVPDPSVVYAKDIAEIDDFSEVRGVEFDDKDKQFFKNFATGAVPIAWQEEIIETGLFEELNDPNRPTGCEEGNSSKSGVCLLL

Sequence of Flt4(h) (human) (P35916 800-1363 limits assumed): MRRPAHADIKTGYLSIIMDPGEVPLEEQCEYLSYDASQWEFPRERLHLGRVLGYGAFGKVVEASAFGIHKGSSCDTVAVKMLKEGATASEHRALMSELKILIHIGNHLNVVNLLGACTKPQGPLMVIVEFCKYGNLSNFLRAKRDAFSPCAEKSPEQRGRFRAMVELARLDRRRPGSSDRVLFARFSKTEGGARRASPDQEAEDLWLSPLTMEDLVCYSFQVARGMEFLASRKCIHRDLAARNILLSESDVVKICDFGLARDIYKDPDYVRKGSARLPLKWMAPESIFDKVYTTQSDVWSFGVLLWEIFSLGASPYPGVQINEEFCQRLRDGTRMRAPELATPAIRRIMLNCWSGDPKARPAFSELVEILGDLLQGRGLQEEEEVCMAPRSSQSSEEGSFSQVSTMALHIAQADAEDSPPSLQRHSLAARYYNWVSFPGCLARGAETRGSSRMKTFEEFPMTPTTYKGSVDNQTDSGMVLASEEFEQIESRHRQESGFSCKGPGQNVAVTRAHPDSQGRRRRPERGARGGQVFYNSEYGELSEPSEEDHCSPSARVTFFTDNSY
Sequence of MARK1(h) (human) (Q9P0L2 whole entry): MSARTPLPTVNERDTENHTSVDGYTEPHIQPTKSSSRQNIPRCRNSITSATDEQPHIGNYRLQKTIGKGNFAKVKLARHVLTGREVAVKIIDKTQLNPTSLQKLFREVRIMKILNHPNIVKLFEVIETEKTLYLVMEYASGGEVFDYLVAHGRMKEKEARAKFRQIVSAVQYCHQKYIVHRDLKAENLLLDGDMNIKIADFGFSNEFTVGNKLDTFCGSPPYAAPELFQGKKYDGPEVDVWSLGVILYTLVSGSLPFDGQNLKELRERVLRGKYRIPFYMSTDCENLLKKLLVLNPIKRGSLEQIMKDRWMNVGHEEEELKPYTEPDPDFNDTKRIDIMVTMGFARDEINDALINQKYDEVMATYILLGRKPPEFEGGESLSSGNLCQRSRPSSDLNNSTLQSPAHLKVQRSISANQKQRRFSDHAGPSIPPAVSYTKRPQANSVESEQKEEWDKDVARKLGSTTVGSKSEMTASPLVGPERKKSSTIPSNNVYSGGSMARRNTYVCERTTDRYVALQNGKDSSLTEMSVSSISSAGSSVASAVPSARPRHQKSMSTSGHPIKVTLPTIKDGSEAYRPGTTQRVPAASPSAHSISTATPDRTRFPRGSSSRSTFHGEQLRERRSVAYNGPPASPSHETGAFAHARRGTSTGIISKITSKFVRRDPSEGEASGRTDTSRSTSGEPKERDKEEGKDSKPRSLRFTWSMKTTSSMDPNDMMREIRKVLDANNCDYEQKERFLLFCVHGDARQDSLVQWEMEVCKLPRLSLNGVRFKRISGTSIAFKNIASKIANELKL
Sequence of WNK2(h) (human) (Q9Y3S1 166-489 limits assumed): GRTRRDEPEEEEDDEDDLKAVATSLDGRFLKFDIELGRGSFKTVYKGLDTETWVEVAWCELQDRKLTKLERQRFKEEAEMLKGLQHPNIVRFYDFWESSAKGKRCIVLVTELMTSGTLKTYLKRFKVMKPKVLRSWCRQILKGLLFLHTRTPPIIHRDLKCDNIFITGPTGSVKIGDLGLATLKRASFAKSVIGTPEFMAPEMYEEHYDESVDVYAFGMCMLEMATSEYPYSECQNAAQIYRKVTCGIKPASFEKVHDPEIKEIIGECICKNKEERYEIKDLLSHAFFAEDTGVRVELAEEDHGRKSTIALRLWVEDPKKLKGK
Sequence of FGFR2(h) (human) (P21802 456-770 limits assumed): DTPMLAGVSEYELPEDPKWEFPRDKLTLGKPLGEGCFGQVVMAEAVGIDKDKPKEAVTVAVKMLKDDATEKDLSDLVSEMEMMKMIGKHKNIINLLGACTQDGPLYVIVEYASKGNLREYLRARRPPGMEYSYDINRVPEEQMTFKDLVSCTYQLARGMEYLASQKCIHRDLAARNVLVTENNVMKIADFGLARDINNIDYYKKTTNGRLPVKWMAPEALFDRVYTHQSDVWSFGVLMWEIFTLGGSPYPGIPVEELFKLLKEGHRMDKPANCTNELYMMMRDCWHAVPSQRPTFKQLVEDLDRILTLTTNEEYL
Sequence of Hck(h) (human) (P08631 251-518 limits assumed): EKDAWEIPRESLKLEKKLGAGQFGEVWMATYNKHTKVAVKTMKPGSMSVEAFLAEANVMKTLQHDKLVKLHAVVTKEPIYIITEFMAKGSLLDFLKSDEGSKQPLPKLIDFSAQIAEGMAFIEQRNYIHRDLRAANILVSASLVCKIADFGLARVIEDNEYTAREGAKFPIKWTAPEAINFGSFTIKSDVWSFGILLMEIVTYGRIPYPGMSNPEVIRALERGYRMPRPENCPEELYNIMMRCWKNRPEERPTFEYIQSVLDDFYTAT
Sequence of 6SK3β(h) (human) (P49841 whole entry): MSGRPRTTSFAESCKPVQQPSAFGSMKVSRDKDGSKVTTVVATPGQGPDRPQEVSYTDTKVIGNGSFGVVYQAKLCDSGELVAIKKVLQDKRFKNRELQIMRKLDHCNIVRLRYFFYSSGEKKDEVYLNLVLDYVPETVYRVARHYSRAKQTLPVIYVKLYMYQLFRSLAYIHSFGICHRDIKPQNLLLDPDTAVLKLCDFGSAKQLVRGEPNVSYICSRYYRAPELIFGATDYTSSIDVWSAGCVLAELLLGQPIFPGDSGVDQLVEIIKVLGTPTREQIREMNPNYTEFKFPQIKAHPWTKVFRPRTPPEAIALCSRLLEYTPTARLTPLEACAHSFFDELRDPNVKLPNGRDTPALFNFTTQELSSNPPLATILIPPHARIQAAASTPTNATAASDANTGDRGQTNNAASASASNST

Take MMI-0500 (peptide): the % activity, 100 µM in the test with WNK2(h) (human) was 8%; with Hck(h) (human), 78%; with CDK3/cyclinE(h) (human) it was 8%; in the test with MARK1(h) (human) it was 110%; with PKGδ(h) (human), 61%; in the test with eEF-2K(h) (human), 43%. The % activity, 100 µM with SGK2(h) (human) is -1%; in the test with PKCα(h) (human) it was 3%; with PhKγ2(h) (human), 16%; in the test with 6SK3β(h) (human), 238%; with FGFR2(h) (human), 12%; with CHK1(h) (human), 65%. Besides, the % activity, 100 µM with GRK7(h) (human) amounted to 93%; in the test with Flt4(h) (human), 73%.
